In patent US20220227829A1 (SHANGHAI GP BIOTECH, published 2022):
Numbering of substitutions follows the chain as printed. Names may count otherwise. One block for each binder: values may come before it.

How the values were obtained:
[1] = biological target: CD25 on the surface of NK92 cells (human NK cell line) (human) (UniProt P01589); assay: cell-based or functional assay
[2] = biological target: T1, CD25 on the surface of CTLL-2 cells (mouse cytotoxic T lymphocyte cell line) (mouse) (UniProt P01590); assay: cell-based or functional assay
T1 sequence (looked up): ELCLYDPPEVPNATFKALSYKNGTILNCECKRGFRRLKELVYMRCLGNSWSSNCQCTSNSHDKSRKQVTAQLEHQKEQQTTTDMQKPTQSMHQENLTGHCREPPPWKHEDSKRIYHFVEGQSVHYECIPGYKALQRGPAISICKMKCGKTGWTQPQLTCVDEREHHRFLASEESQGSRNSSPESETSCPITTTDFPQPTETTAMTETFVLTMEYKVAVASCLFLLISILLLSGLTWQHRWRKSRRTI

[3] = biological target: T2, CD25 protein (from Example 2); assay: ELISA on coated CD25
T2 chain: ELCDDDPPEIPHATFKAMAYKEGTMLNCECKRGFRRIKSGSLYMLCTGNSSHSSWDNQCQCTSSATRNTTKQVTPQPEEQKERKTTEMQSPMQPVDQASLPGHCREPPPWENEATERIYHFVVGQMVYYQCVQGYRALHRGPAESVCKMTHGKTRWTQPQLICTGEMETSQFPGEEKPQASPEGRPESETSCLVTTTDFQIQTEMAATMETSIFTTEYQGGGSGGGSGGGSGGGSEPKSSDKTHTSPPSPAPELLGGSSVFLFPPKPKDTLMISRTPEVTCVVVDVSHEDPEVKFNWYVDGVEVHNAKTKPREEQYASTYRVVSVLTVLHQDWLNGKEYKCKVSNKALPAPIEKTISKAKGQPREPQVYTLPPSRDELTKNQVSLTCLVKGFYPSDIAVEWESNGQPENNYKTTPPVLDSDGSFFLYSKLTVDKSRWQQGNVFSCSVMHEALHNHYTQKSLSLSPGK
Procedure: (§1) CD25 (from Example 2) was coated on a 96-well high adsorption microtiter plate (3590, Costar), washed and blocked. The sample to be tested was diluted to an appropriate concentration and added to wells.

[4] = biological target: T2, CD25 protein (from Example 2); assay: ELISA on coated CD25, sample at 0.04 ug/ml, relative to rhIL-2 = 100%
Procedure: as §1

[5] = biological target: T2, CD25 protein (from Example 2); assay: ELISA on coated CD25, sample at 0.2 ug/ml, relative to rhIL-2 = 100%
Procedure: as §1

[6] = biological target: T3, CD25 on the surface of NK92 cells (human NK cell line) (human, UniProt P01589 22-272); assay: cell-based or functional assay
T3 sequence (looked up): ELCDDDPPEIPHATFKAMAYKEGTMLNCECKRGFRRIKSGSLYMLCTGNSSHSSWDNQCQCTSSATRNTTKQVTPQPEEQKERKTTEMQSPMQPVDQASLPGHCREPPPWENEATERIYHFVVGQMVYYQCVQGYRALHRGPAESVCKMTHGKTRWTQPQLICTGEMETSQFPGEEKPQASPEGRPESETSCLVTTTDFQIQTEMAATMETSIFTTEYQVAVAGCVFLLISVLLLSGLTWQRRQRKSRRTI

[7] = biological target: T4, CD25 on the surface of CTLL-2 cells (mouse cytotoxic T lymphocyte cell line) (mouse, UniProt P01590 22-268); assay: cell-based or functional assay
T4 sequence (looked up): T1 sequence (looked up)

[8] = biological target: T2, CD25 protein (from Example 2); assay: ELISA on coated CD25, sample at 1 ug/ml, relative to rhIL-2 = 100%
Procedure: as §1

EC50 (nM), NK92 cell proliferation [1]: 0.0711 nM | Potency relative to rhIL-2 (%), NK92 cell proliferation [1]: 7.42%
B1: IL-2gm5 (T3A, M39N, K49N, A73T), IgG1-Fc tag (Fc fusion)
chain: APASSSTKKTQLQLEHLLLDLQMILNGINNYKNPKLTRNLTFKFYMPKNATELKHLQCLEEELKPLEEVLNLTQSKNFHLRPRDLISNINVIVLELKGSETTFMCEYADETATIVEFLNRWITFAQSIISTLTEPKSSDKTHTSPPSPAPELEGGSSVFLFPPKPKDTLMISRTPEVTCVVVDVSHEDPEVKFNWYVDGVEVHNAKTKPREEQYASTYRVVSVLTVLHQDWLNGKAYACAVSNKALPAPIEKTISKAKGQPREPQVYTLPPSREEMTKNQVSLTCLVKGFYPSDIAVEWESNGQPENNYKTTPPVLDSDGSFFLYSKLTVDKSRWQQGNVFSCSVMHEALHNHYTQKSLSLSPGK
EC50 (nM), CTLL-2 cell proliferation [2]: 0.173 nM | Potency relative to rhIL-2 (%), CTLL-2 cell proliferation [2]: 1.68%

EC50 (nM), NK92 cell proliferation [1]: 0.824 nM | Potency relative to rhIL-2 (%), NK92 cell proliferation [1]: 0.641%
B2: IL-2gm6 (T3A, M39N, K49N, A73T, D109N), IgG1-Fc tag (Fc fusion)
chain: B1 chain with D109N
EC50 (nM), CTLL-2 cell proliferation [2]: 5.95 nM | Potency relative to rhIL-2 (%), CTLL-2 cell proliferation [2]: 0.049%

binding result [3]: no binding (tested: 1 ug/ml) | Binding activity (%) [4]: 1.51% | Binding activity (%) [5]: 0.99% | EC50 (nM), NK92 cell proliferation [6]: 0.306 nM | Potency relative to rhIL-2 (%), NK92 cell proliferation [6]: 1.73% | Binding activity (%) [8]: 0.74%
B3: IL-2qm (T3A, F42A, Y45A, L72G), IgG1-Fc tag (Fc fusion)
chain: B1 chain with N39M, F42A, Y45A, N49K, L72G, T73A
notes: copies 2 rests on that; also called IL-2qm-Fc; Rocheglicat (CN103492411B)
Potency relative to rhIL-2 (%), CTLL-2 cell proliferation [7]: 0%
